Laboratory results reported in the supplement of paper PMC5998384.

What was measured:
HeLa Kyoto [1] = assay: solubility in G1/S (NP-40 vs SDS abundance) (log2 ratio); higher = more soluble; details: cell cycle stage: G1/S
HeLa Kyoto [2] = assay: solubility change mitosis vs G1/S (difference of NP-40 vs SDS log2 ratios) (log2 ratio difference); higher = more soluble in mitosis
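Throughout, for solubility change mitosis vs G1/S (difference of NP-40 vs SDS log2 ratios): synchronized HeLa Kyoto cells (double thymidine block for G1/S, nocodazole release for mitosis), protein amounts in NP-40 versus SDS lysates quantified by mass spectrometry, three biological replicates.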
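Throughout, for solubility in G1/S (NP-40 vs SDS abundance): HeLa Kyoto cells arrested at G1/S by double thymidine block, proteins quantified by TMT10plex mass spectrometry in mild NP-40 versus SDS extracts, three biological replicates.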

“METMRAQRLQPGVGTSGRGTLRALRPGVTGAAAATATPPAGPPPAPPPPAPPPPPLLLSGAPGLPLPPGAAGSPAVLREAVEAVVRSFAKHTQGYGRVNVVEALQEFWQMKQSRGADLKNGALVVYEMVPSNSPPYVCYVTLPGGSCFGSFQFCPTKAEARRSAAKIALMNSVFNEHPSRRITDEFIEKSVSEALASFNGNREEADNPNTGIGAFRFMLESNKGKSMLEFQELMTVFQLLHWNGSLKAMRERQCSRQEVLAHYSHRALDDDIRHQMALDWVSREQSVPGALSRELASTERELDEARLAGKELRFHKEKKDILVLAAGQLGNMHSSNC [LIX1L]” was tested, and the “solubility in G1/S (log2)” value (HeLa Kyoto [1]) was 0.528 and the “solubility change mitosis (log2)” value (HeLa Kyoto [2]) was -0.1.
For “MEESMEEEEGGSYEAMMDDQNHNNWEAAVDGFRQPLPPPPPPSSIPAPAREPPGGQLLAVPAVSVDRKGPKEGLPMGPQPPPEANGVIMMLKSCDAAAAVAKAAPAPTASSTININTSTSKFLMNVITIEDYKSTYWPKLDGAIDQLLTQSPGDYIPISYEQIYSCVYKCVCQQHSEQMYSDLIKKITNHLERVSKELQASPPDLYIERFNIALGQYMGALQSIVPLFIYMNKFYIETKLNRDLKDDLIKLFTEHVAEKHIYSLMPLLLEAQSTPFQVTPSTMANIVKGLYTLRPEWVQMAPTLFSKFIPNILPPAVESELSEYAAQDQKFQRELIQNGFTRGDQSRKRAGDELAYNSSSACASSRGYR [CACUL1]”, the “solubility in G1/S (log2)” value (HeLa Kyoto [1]) was 0.278 and the “solubility change mitosis (log2)” value (HeLa Kyoto [2]) was 0.103.
“MEDGTPKHIIQMTGFKMEEKEALVKLLLKLDCTFIKSEKYKNCTHLIAERLCKSEKFLAACAAGKWILTKDYIIHSAKSGRWLDETTYEWGYKIEKDSRYSPQMQSAPKRWREELKRTGAPGAFHRWKVVLLVRTDKRSDSLIRVLEAGKANVILPKSSPSGITHVIASNARIKAEKEKDNFKAPFYPIQYLGDFLLEKEIQNDEDSQTNSVWTEHSNEETNKDFRKDAGFLEMKGALRETMYRTQKEMQNHEDVNVGSILIQHHKKEKFSGSSKDLKFVKMRNTFGSHTYENQKEIKKKDEDIQRSYTLRRKRKKGKESNCKKGVEHEKIKSTLRRHIYNRDQKEMKNSIFAEYAKESKAMAIKTDVDVVEIKNTLRKHIYRAQAVRYNCIRIDKQPVYNVEVKNAEFPRGVLNLIESLIEGHFFKEAIEELSTLQAHYIPPVCVLHALLENVLQDNIDTFSGRYFHILSALLHLHPPWKSPAMSRYYLELFQCPTCMKGAWSLVEVLIRSCLFNESFCHQISENIGSKVLHLTLLKFFFNLIESEVQHLSQKLYDWSDSQNLKITGKAMLLEIFWSGSETSGLLTKPVNMLLEWTIYSHKEKFKSNDVFKHELAYLLAGILGAAIDYWIFLGLKMGRNVMRHMSDDLGSYVSLSCDDFSSQELEIFICSFSSSWLQMFVAEAVFKKLCLQSSGSVSSEPLSLQKMVYSYLPALGKTGVLGSGKIQVSKKIGQRPCFDSQRTLLMLNGTKQKQVEGLPELLDLNLAKCSSSLKKLKKKSEGELSCSKENCPSVVKKMNFHKTNLKGETALHRACINNQVEKLILLLSLPGIDINVKDNAGWTPLHEACNYGNTVCVQEILQRCPEVDLLTQVDGVTPLHDALSNGHVEIGKLLLQHGGPVLLQQRNAKGELPLDYVVSPQIKEELFAITKIEDTVENFHAQAEKHFHYQQLEFGSFLLSRMLLNFCSIFDLSSEFILASKGLTHLNELLMACKSHKETTSVHTDWLLDLYAGNIKTLQKLPHILKELPENLKVCPGVHTEALMITLEMMCRSVMEFS [SLF1]” was tested, and the “solubility in G1/S (log2)” value (HeLa Kyoto [1]) was -0.991 and the “solubility change mitosis (log2)” value (HeLa Kyoto [2]) was 0.644.
For TTC28, the “solubility in G1/S (log2)” value (HeLa Kyoto [1]) was 0.0118 and the “solubility change mitosis (log2)” value (HeLa Kyoto [2]) was -0.133.
“METDESPSPLPCGPAGEAVMESRARPFQALPREQSPPPPLQTSSGAEVMDVGSGGDGQSELPAEDPFNFYGASLLSKGSFSKGRLLIDPNCSGHSPRTARHAPAVRKFSPDLKLLKDVKISVSFTESCRSKDRKVLYTGAERDVRAECGLLLSPVSGDVHACPFGGSVGDGVGIGGESADKKDEENELDQEKRVEYAVLDELEDFTDNLELDEEGAGGFTAKAIVQRDRVDEEALNFPYEDDFDNDVDALLEEGLCAPKKRRTEEKYGGDSDHPSDGETSVQPMMTKIKTVLKSRGRPPTEPLPDGWIMTFHNSGVPVYLHRESRVVTWSRPYFLGTGSIRKHDPPLSSIPCLHYKKMKDNEEREQSSDLTPSGDVSPVKPLSRSAELEFPLDEPDSMGADPGPPDEKDPLGAEAAPGALGQVKAKVEVCKDESVDLEEFRSYLEKRFDFEQVTVKKFRTWAERRQFNREMKRKQAESERPILPANQKLITLSVQDAPTKKEFVINPNGKSEVCILHEYMQRVLKVRPVYNFFECENPSEPFGASVTIDGVTYGSGTASSKKLAKNKAARATLEILIPDFVKQTSEEKPKDSEELEYFNHISIEDSRVYELTSKAGLLSPYQILHECLKRNHGMGDTSIKFEVVPGKNQKSEYVMACGKHTVRGWCKNKRVGKQLASQKILQLLHPHVKNWGSLLRMYGRESSKMVKQETSDKSVIELQQYAKKNKPNLHILSKLQEEMKRLAEEREETRKKPKMSIVASAQPGGEPLCTVDV [DGCR8]” was tested, and the “solubility in G1/S (log2)” value (HeLa Kyoto [1]) was -0.452 and the “solubility change mitosis (log2)” value (HeLa Kyoto [2]) was 0.0203.
In the case of “MNDISQKAEILLSSSKPVPKTYVPKLGKGDVKDKFEAMQRAREERNQRRSRDEKQRRKEQYIREREWNRRKQEIKEMLASDDEEDVSSKVEKAYVPKLTGTVKGRFAEMEKQRQEEQRKRTEEERKRRIEQDMLEKRKIQRELAKRAEQIEDINNTGTESASEEGDDSLLITVVPVKSYKTSGKMKKNFEDLEKEREEKERIKYEEDKRIRYEEQRPSLKEAKCLSLVMDDEIESEAKKESLSPGKLKLTFEELERQRQENRKKQAEEEARKRLEEEKRAFEEARRQMVNEDEENQDTAKIFKGYRPGKLKLSFEEMERQRREDEKRKAEEEARRRIEEEKKAFAEARRNMVVDDDSPEMYKTISQEFLTPGKLEINFEELLKQKMEEEKRRTEEERKHKLEMEKQEFEQLRQEMGEEEEENETFGLSREYEELIKLKRSGSIQAKNLKSKFEKIGQLSEKEIQKKIEEERARRRAIDLEIKEREAENFHEEDDVDVRPARKSEAPFTHKVNMKARFEQMAKAREEEEQRRIEEQKLLRMQFEQREIDAALQKKREEEEEEEGSIMNGSTAEDEEQTRSGAPWFKKPLKNTSVVDSEPVRFTVKVTGEPKPEITWWFEGEILQDGEDYQYIERGETYCLYLPETFPEDGGEYMCKAVNNKGSAASTCILTIESKN [NEXN]”, the “solubility in G1/S (log2)” value (HeLa Kyoto [1]) is reported as -0.858 and the “solubility change mitosis (log2)” value (HeLa Kyoto [2]) is reported as 0.21.
With “MKEMSANTVLDSQRQQKHYGITSPISLASPKEIDHIYTQKLIDAMKPFGVFEDEEELNHRLVVLGKLNNLVKEWISDVSESKNLPPSVVATVGGKIFTFGSYRLGVHTKGADIDALCVAPRHVERSDFFQSFFEKLKHQDGIRNLRAVEDAFVPVIKFEFDGIEIDLVFARLAIQTISDNLDLRDDSRLRSLDIRCIRSLNGCRVTDEILHLVPNKETFRLTLRAVKLWAKRRGIYSNMLGFLGGVSWAMLVARTCQLYPNAAASTLVHKFFLVFSKWEWPNPVLLKQPEESNLNLPVWDPRVNPSDRYHLMPIITPAYPQQNSTYNVSTSTRTVMVEEFKQGLAVTDEILQGKSDWSKLLEPPNFFQKYRHYIVLTASASTEENHLEWVGLVESKIRVLVGNLERNEFITLAHVNPQSFPGNKEHHKDNNYVSMWFLGIIFRRVENAESVNIDLTYDIQSFTDTVYRQANNINMLKEGMKIEATHVKKKQLHHYLPAEILQKKKKQSLSDVNRSSGGLQSKRLSLDSSCLDSSRDTDNGTPFNSPASKSDSPSVGETERNSAEPAAVIVEKPLSVPPAQGLSIPVIGAKVDSTVKTVSPPTVCTIPTVVGRNVIPRITTPHNPAQGQPHLNGMSNITKTVTPKRSHSPSIDGTPKRLKDVEKFIRLESTFKDPRTAEERKRKSVDAIGGESMPIPTIDTSRKKRLPSKELPDSSSPVPANNIRVIKNSIRLTLNR [PAPOLG]” the “solubility in G1/S (log2)” value (HeLa Kyoto [1]) was -0.0339 and the “solubility change mitosis (log2)” value (HeLa Kyoto [2]) was -0.0762.
In the case of “MGPGGPLLSPSRGFLLCKTGWHSNRLLGDCGPHTPVSTALSFIAVGMAAPSMKERQVCWGARDEYWKCLDENLEDASQCKKLRSSFESSCPQQWIKYFDKRRDYLKFKEKFEAGQFEPSETTAKS [COA6]”, the “solubility in G1/S (log2)” value (HeLa Kyoto [1]) is reported as -0.656 and the “solubility change mitosis (log2)” value (HeLa Kyoto [2]) is reported as 0.327.
For “MPAPPCASCHAARAALRRPLSGQALCGACFCAAFEAEVLHTVLAGRLLPPGAVVAVGASGGKDSTVLAHVLRALAPRLGISLQLVAVDEGIGGYRDAALAAVRRQAARWELPLTVVAYEDLFGGWTMDAVARSTAGSGRSRSCCTFCGVLRRRALEEGARRVGATHIVTGHNADDMAETVLMNFLRGDAGRLARGGGLGSPGEGGALPRCRPLQFASQKEVVLYAHFRRLDYFSEECVYAPEAFRGHARDLLKRLEAARPSAVLDLVHSAERLALAPAARPPRPGACSRCGALASRALCQACALLDGLNRGRPRLAIGKGRRGLDEEATPGTPGDPARPPASKAVPTF [CTU1]”, the “solubility in G1/S (log2)” value (HeLa Kyoto [1]) was 0.107 and the “solubility change mitosis (log2)” value (HeLa Kyoto [2]) was 0.0895.
